Assay results taken from IntAct's records for PubMed 23911326.

B1: Metabotropic glutamate receptor 5 (Mus musculus), Q3UVX5 (parent)
chain: MVLLLILSVLLLKEDVRGSAQSSERRVVAHMPGDIIIGALFSVHHQPTVDKVHERKCGAVREQYGIQRVEAMLHTLERINSDPTLLPNITLGCEIRDSCWHSAVALEQSIEFIRDSLISSEEEEGLVRCVDGSSSFRSKKPIVGVIGPGSSSVAIQVQNLLQLFNIPQIAYSATSMDLSDKTLFKYFMRVVPSDAQQARAMVDIVKRYNWTYVSAVHTEGNYGESGMEAFKDMSAKEGICIAHSYKIYSNAGEQSFDKLLKKLRSHLPKARVVACFCEGMTVRGLLMAMRRLGLAGEFLLLGSDGWADRYDVTDGYQREAVGGITIKLQSPDVKWFDDYYLKLRPETNLRNPWFQEFWQHRFQCRLEGFAQENSKYNKTCNSSLTLRTHHVQDSKMGFVINAIYSMAYGLHNMQMSLCPGYAGLCDAMKPIDGRKLLDSLMKTNFTGVSGDMILFDENGDSPGRYEIMNFKEMGKDYFDYINVGSWDNGELKMDDDEVWSKKNNIIRSVCSEPCEKGQIKVIRKGEVSCCWTCTPCKENEYVFDEYTCKACQLGSWPTDDLTGCDLIPVQYLRWGDPEPIAAVVFACLGLLATLFVTVIFIIYRDTPVVKSSSRELCYIILAGICLGYLCTFCLIAKPKQIYCYLQRIGIGLSPAMSYSALVTKTNRIARILAGSKKKICTKKPRFMSACAQLVIAFILICIQLGIIVALFIMEPPDIMHDYPSIREVYLICNTTNLGVVTPLGYNGLLILSCTFYAFKTRNVPANFNEAKYIAFTMYTTCIIWLAFVPIYFGSNYKIITMCFSVSLSATVALGCMFVPKVYIILAKPERNVRSAFTTSTVVRMHVGDGKSSSAASRSSSLVNLWKRRGSSGETLRYKDRRLAQHKSEIECFTPKGSMGNGGRATMSSSNGKSVTWAQNEKSTRGQHLWQRLSVHINKKENPNQTAVIKPFPKSTESRGQGAGAGGGSGPGAAGAGSAGCTATGGPEPPDAGPKALYDVAEAEERFPAAARPRSPSPISTLSHLAGSAGRTDDDAPSLHSETAARSSSSQGSLMEQISSVVTRFTANITELNSMMLSTAAAPGPPGTPICSSYLIPKEIQLPTTMTTFAEIQPLPAIEVTGGAQPATGPSPAQETPAGAEAAPGKPDLEELVALTPPSPFRDSVDSGSTTPNSPVSESALCIPSSPKYDTLIIRDYTQSSSSL
partner: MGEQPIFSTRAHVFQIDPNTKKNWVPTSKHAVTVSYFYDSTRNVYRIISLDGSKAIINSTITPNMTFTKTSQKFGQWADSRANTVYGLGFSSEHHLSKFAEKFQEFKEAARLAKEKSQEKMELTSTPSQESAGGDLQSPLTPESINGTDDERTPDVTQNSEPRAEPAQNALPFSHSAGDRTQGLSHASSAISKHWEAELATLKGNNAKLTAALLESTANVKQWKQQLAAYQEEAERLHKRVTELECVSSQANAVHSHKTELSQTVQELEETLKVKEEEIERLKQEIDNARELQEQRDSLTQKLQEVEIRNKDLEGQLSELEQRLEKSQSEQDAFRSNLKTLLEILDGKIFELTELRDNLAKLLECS

Variants of: B1
Conditions: with Homer1, Q9Z214-1

| effect of a mutation on the interaction | Variant |
| --- | --- |
| disrupting interaction strength | F1160R |
